Results: PMC2873993, “Comparative Therapeutic Effects of Velaglucerase Alfa and Imiglucerase in a Gaucher Disease Mouse Model” (PLoS ONE, 2010)
Residue numbers refer to the chain shown, from its start. Read-outs that look alike come from different tables or passages of the source.

Assays:
[1] = tested on: 9 V/null mice; experiment: Total serum IgE ELISA in mice that died after injection; conditions: mice that died after 4 or 5 injections of 60 U/kg/wk, n = 3
[2] = pH- and thermostability of enzyme activity in buffer or serum; assay type: physicochemical; conditions: for irreversible loss of activity by 2 h / loss of activity by 4 h: pH 7.4, citrate/phosphate buffer or mouse or human serum, 37 or 25°C
Experimental: (§1) Vela and Imig were compared for kinetic properties as described. Briefly, the standard GCase activity assay contained final concentrations of 50 mM citrate/phosphate, pH 5.5, 0.25% TC, 0.25% TX, and 4 mM 4MU-Glc in 200 µl. The reactions were stopped after incubation (30–60 min, 37°C) using 0.9 M ethylenediamine, pH 11.0 (100 µl). Standard curves for 4-MU fluorescence yield were generated for each assay with Ex/Em 460/515 nm (Molecular Dynamics SpectraMax GeminXS spectrofluorometer). […] For the reversible competitive inhibitors, Ki was calculated from IC50 = Ki (1+ [I]/[Km]). The IC50 or Ki values for various inhibitors (dNM and its derivatives, CBE, CS, IFG, DNPFG) were determined using 4MU-Glc as substrate. Activities with the NBD-GC substrate were as described. Enzyme assays with saposin C (0–500 nM/0.5 µM BPS) and BPS (0–2 µM) were as described, [40]. Saposin C was expressed in E. coli and purified as described. For thermostability assessments, equal amounts of Vela and Imig activities were added to 50 mM citrate/phosphate, pH 7.4, with or without human/mouse serum, and incubated for 0–240 min at 25 or 37°C. The pH optimum profiles were developed using 50 mM citrate/phosphate, pH 4.4–7.2. Protease susceptibilities of the two GCases were evaluated by cathepsin D (1–2 µM) digestion in 25 mM sodium acetate, pH 4.8, 50 mM NaCl, 1.25 mM EDTA, 1.25 mM DTT using 200 ng of Vela or Imig at 37°C for 4 h. All assays were conducted in triplicate and repeated at least twice. The amounts of intact enzyme were determined from density measurements on immunoblots and were compared to the initial amounts. The ratios of intact enzyme with and without cathepsin D were used as indicators of the enzyme's proteolytic susceptibility.

[3] = tested on: 9 V/null mice; experiment: Mouse anti-human GCase IgG ELISA
[4] = biological target: T1, saposin C (Homo sapiens, UniProt P07602); experiment: Activation of GCase by saposin C in detergent-free system; assay type: biochemical; conditions: for saposin C concentration of maximum activation: in the presence of 0.5 µM BPS; for increase of activity with saposin C: saposin C 0 to 500 nM, detergent-free
T1 construct: Saposin C was expressed in E. coli and purified as described [40]; made in house; host or cells: E. coli
T1 sequence (P07602 311-390 limits assumed): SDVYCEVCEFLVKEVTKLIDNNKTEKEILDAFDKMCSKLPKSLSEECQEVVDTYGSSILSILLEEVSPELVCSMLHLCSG
Experimental: Activation of Vela and Imig by the negatively charged lipid, BPS, and saposin C was determined in a detergent-free system with varying concentrations of either agent. The activities of both enzymes increased by 5- to 6-fold or 15- to 17-fold with saposin C (0 to 500 nM) or BPS (0 to 2 µM), respectively. […] Similarly, in the absence of saposin C, both enzymes reacted maximal activation with 0.5 µM of BPS. No significant differences were found in these responses (p = 0.5875–0.8473).
as §1

[5] = pH optimum profile of GCase activity; assay type: biochemical; conditions: profile pH 4.4–7.2
Experimental: as §1, with “For thermostability assessments, equal amounts of Vela and Imig activities were added to 50 mM citrate/phosphate, pH 7.4, with or without human/mouse serum, and incubated for 0–240 min at 25 or 37°C. The pH optimum profiles were developed using 50 mM citrate/phosphate, pH 4.4–7.2.” left out, “All assays were conducted in triplicate and repeated at least twice.” left out, “The ratios of intact enzyme with and without cathepsin D were used as indicators of the enzyme's proteolytic susceptibility.” left out

[6] = Tissue GCase activity, CRIM and CRIM-SA (liver, spleen, lung) after i.v. bolus; conditions: for Recovery of injected activity in liver / Recovery of injected activity in lung / Recovery of injected activity in spleen: 60 U/kg bolus, % ± SE; for peak liver activity relative to WT: 20 min
[7] = Quantification of functional active sites with single turnover substrate DNPFG; assay type: biochemical; conditions: for Active sites, 2,4-DNPFG: mole ratio of 2,4-DNP released and enzyme protein, mean ± SE, n = 8
Experimental: Catalytic activities of Vela and Imig were analyzed with 4MU-Glc and GC substrates. Vela had ∼6–10% reproducibly greater activity compared to Imig (Table 1). The functional active sites of these two enzymes were quantified using the single turnover substrate DNPFG, and consistent with the hydrolytic activity, ∼5–7% more functional active sites were quantified with Vela than with Imig (Table 1).
as §1, with “The ratios of intact enzyme with and without cathepsin D were used as indicators of the enzyme's proteolytic susceptibility.” left out

[8] = GCase activity assay with 4MU-Glc substrate; assay type: biochemical; conditions: for GCase activity, 4MU-Glc: mean ± SE; for GCase activity, 4MU-Glc / Km: n = 6
Experimental: as §1

[9] = Serum GCase activity, CRIM and CRIM-SA after i.v. bolus; conditions: for Recovery of injected activity in serum: 60 U/kg bolus, peak 2 min, % ± SE
[10] = mouse, in vivo, iv
[11] = tested on: patients; conditions: human, in vivo; cited from earlier work
[12] = tested on: 9 V/null mice; conditions: mouse, in vivo
[13] = mouse, in vivo
[14] = 5-wk 9 V/null mice, peak 20 min
[15] = 5-wk 9 V/null mice, 60 U/kg i.v.
[16] = 20-wk 9 V/null mice, peak 20 min
[17] = 20-wk 9 V/null mice, 60 U/kg i.v.

B1: velaglucerase alfa (protein)
chain: ARPCIPKSFGYSSVVCVCNATYCDSFDPPTFPALGTFSRYESTRSGRRMELSMGPIQANHTGTGLLLTLQPEQKFQKVKGFGGAMTDAAALNILALSPPAQNLLLKSYFSEEGIGYNIIRVPMASCDFSIRTYTYADTPDDFQLHNFSLPEEDTKLKIPLIHRALQLAQRPVSLLASPWTSPTWLKTNGAVNGKGSLKGQPGDIYHQTWARYFVKFLDAYAEHKLQFWAVTAENEPSAGLLSGYPFQCLGFTPEHQRDFIARDLGPTLANSTHHNVRLLMLDDQRLLLPHWAKVVLTDPEAAKYVHGIAVHWYLDFLAPAKATLGETHRLFPNTMLFASEACVGSKFWEQSVRLGSWDRGMQYSHSIITNLLYHVVGWTDWNLALNPEGGPNWVRNFVDSPIIVDITKDTFYKQPMFYHLGHFSKFIPEGSQRVGLVASQKNDLDAVALMHPDGSAVVVVLNRSSKDVPLTIKDPAVGFLETISPGYSIHTYLWRRQ
modifications: N-linked oligosaccharides with higher α-mannosyl content (predominant number of mannoses is 9)
- Total serum IgE levels [1]: 46.4 to 234.9 ng/mL
- t1/2 of GCase activity ([2]; 25°C + h-serum): 2.933 ± 0.0978 h
- t1/2 of GCase activity ([2]; 25°C + m-serum): 3.235 ± 0.102 h
- t1/2 of GCase activity ([2]; 25°C in CP, pH 7.4): 1.977 ± 0.0318 h
- t1/2 of GCase activity ([2]; 37°C + h-serum): 2.117 ± 0.169 h
- t1/2 of GCase activity ([2]; 37°C + m-serum): 2.31 ± 0.0637 h
- t1/2 of GCase activity ([2]; 37°C in CP, pH 7.4): 1.82 ± 0.0025 h
- irreversible loss of activity by 2 h [2]: > 50%
- loss of activity by 4 h [2]: 70–85%
- serum anti-GCase IgG signals ([3]; 5 or 15 U/kg/wk, each bleed): at background or very low levels
- injected mice with increased serum anti-GCase IgG ([3]; 60 U/kg/wk, by the 4th injection): > 50%
- increase of serum anti-GCase IgG levels above background ([3]; 60 U/kg/wk, by the 4th injection, at ∼3×10^3 dilution): ~3 fold
- saposin C concentration of maximum activation [4]: 200 nM
- increase of activity with saposin C [4]: 5- to 6 fold
- pH of peak activity [5]: 5.4–5.6
- Recovery of injected activity in liver [6, 14]: 57.53±1.35%
- Recovery of injected activity in lung [6, 14]: 0.1±0.01%
- Recovery of injected activity in spleen ([6]; 5-wk 9 V/null mice, peak 40 min): 1.86±0.06%
- drop of liver activity within 40 min [6, 15]: about 60%
- liver GCase activity by 42 h [6, 15]: 13–18 % of WT
- peak spleen activity lower than in 20-wk mice [6, 15]: 2- to 3 fold
- splenic CRIM-SA [6, 15]: 0.2–0.8×10^6 nmoles/h/mg enzyme protein
- time liver activity remained at ≥WT level [6, 15]: 70 to 80 min
- t½ of CRIM levels in spleen [6, 15]: ~2 h
- t½ of activity disappearance in liver [6, 15]: about 60 min
- peak liver activity relative to WT [6, 15]: ~2.5 fold
- Recovery of injected activity in liver [6, 16]: 60.36±2.01%
- Recovery of injected activity in lung [6, 16]: 0.04±0.01%
- Recovery of injected activity in spleen [6, 16]: 2.62±0.08%
- decrease of liver GCase activity within 40 min [6, 17]: ~30%
- decrease of spleen enzyme activity by 40 min [6, 17]: ~40%
- liver GCase activity by 42 h [6, 17]: 13–15 % of WT
- time liver activity remained at or above WT levels [6, 17]: 3 h
- time spleen activity remained at ≥WT levels [6, 17]: ~3.5 h
- t½ of CRIM disappearance in liver [6, 17]: 1.5 to 1.83 h
- t½ of GCase activity disappearance in liver [6, 17]: ~1.67 h
- t½ of GCase protein disappearance in spleen [6, 17]: 1.0 to 1.5 h
- peak liver activity relative to WT [6, 17]: 2.5- to 3.5 fold
- peak spleen activity relative to WT ([6]; 20-wk 9 V/null mice, 20 min post-injection, 60 U/kg i.v.): 3- to 4.5 fold
- time liver activity remained at ≥WT level ([6]; 20-wk 9 V/null mice, as restated): ~180 min
- enzyme recovered in spleens and lungs ([6]; after bolus i.v. injections, abstract): < 5%
- injected enzyme recovered from the liver ([6]; intravenous bolus, discussion): ≥ 60%
- more functional active sites than Imig ([7]; DNPFG): 5–7%
- Active sites, 2,4-DNPFG [7]: 97.4±0.6%
- greater activity compared to Imig ([8]; 4MU-Glc and GC substrates): 6–10%
- GCase activity, 4MU-Glc [8]: 1,030,480±2,692 nmole/h/mg
- Km [8]: 1590 ± 200 µM
- Recovery of injected activity in serum ([9]; 5-wk 9 V/null mice): 63.06±4.62%
- serum activity by 20 min post-injection ([9]; 9 V/null mice, 60 U/kg i.v.): < 10 % of the 2-min values
- t½ of clearance of GCase activity in serum ([9]; 9 V/null mice, 60 U/kg i.v.): 8 to 11 min
- Recovery of injected activity in serum ([9]; 20-wk 9 V/null mice): 58.16±1.61%
- catalytic value (CRIM-SA) of intact enzyme remaining in serum by 20 min ([9]; 60 U/kg i.v.): < 10 % of its original catalytic value
- t½ of GCase CRIM disappearance in serum ([9]; both age groups, 60 U/kg i.v.): ~0.217 h

B2: imiglucerase (protein)
chain: B1 chain with R495H
modifications: short N-linked oligosaccharide chains with ~3 exposed α-mannosyl residues
- t1/2 of GCase activity ([2]; 25°C + h-serum): 3.107 ± 0.106 h
- t1/2 of GCase activity ([2]; 25°C + m-serum): 3.587 ± 0.253 h
- t1/2 of GCase activity ([2]; 25°C in CP, pH 7.4): 2.04 ± 0.129 h
- t1/2 of GCase activity ([2]; 37°C + h-serum): 2.125 ± 0.169 h
- t1/2 of GCase activity ([2]; 37°C + m-serum): 2.455 ± 0.124 h
- t1/2 of GCase activity ([2]; 37°C in CP, pH 7.4): 1.858 ± 0.0413 h
- irreversible loss of activity by 2 h [2]: > 50%
- loss of activity by 4 h [2]: 70–85%
- saposin C concentration of maximum activation [4]: 200 nM
- increase of activity with saposin C [4]: 5- to 6 fold
- serum activity by 20 min post-injection [10]: < 10 % of the 2-min values
- t½ of GCase CRIM disappearance in serum [10]: ~0.217 h
- t½ of clearance of GCase activity in serum [10]: 8 to 11 min
- catalytic value (CRIM-SA) of intact enzyme remaining in serum by 20 min ([10]; 20 min): < 10 % of its original catalytic value
- documented IgE-mediated or anaphylactic reactions [11]: < 1%
- patients who developed an IgG antibody response [11]: 13–15%
- pH of peak activity [5]: 5.4–5.6
- injected mice with increased serum anti-GCase IgG [12]: > 50%
- time liver activity remained at ≥WT level [13]: ~180 min
- decrease of spleen enzyme activity by 40 min ([13]; iv): ~40%
- enzyme localized to the liver interstitial cells ([13]; iv): ≥ 80%
- enzyme recovered in spleens and lungs ([13]; iv): < 5%
- injected enzyme recovered from the liver ([13]; iv): ≥ 60%
- peak spleen activity lower than in 20-wk mice ([13]; iv): 2- to 3 fold
- t½ of CRIM disappearance in liver ([13]; iv): 1.5 to 1.83 h
- t½ of CRIM levels in spleen ([13]; iv): ~1 h
- t½ of GCase activity disappearance in liver ([13]; iv): ~1.67 h
- t½ of GCase protein disappearance in spleen ([13]; iv): 1.0 to 1.5 h
- t½ of activity disappearance in liver ([13]; iv): about 60 min
- Active sites, 2,4-DNPFG [7]: 91.6±2.2%
- GCase activity, 4MU-Glc [8]: 966,000±8,467 nmole/h/mg
- Km [8]: 1650 ± 250 µM
